Measured values as given in patent US20220356237A1 (UNIVERSITY OF MIAMI, published 2022).

How the values were obtained:
[1] = molecular target: T1, human secretogranin III (Scg3) (human, UniProt Q8WXD2 20-468, limits assumed); test: ELISA on immobilised Scg3 and Octet RED96
T1 construct: also called human Scg3; 1B1075
Procedure: (§1) Competitive binding to Scg3 was evaluated for Clone 49 and the other anti-Scg3 mAbs described in Table 1. Anti-Scg3 scFv Clone 49 (FIG. 3D) and Clone 78 (FIG. 3E) were expressed and purified. […] Bound scFv was detected by ELISA assay. Binding assays were also performed using an Octet RED96 system (Pall ForteBio), as described in Estep et al., MAbs 2013; 5:270-278.

[2] = molecular target: T1, human secretogranin III (Scg3); test: method not given; protein pulldown with protein G beads at 5 ug/ml each is described in paragraph 100
Procedure: Protein pulldown. Scg3 (5 μg/ml) was incubated with aflibercept, VEGFR-Fc or VEGFR2-Fc (5 μg/ml) in PBS solution containing 0.5% Triton X-100 and BSA (1 mg/ml) for 1 h at 4° C. Protein G beads (20 μl) were added and incubated at 4° C. for 30 min with end-over-end rotation. The beads were washed three times with PBS by centrifugation, eluted with low pH buffer (100 mM glycine, pH 2.7) and analyzed by Western blot using anti-Scg3 pAb.

[3] = molecular target: T1, human secretogranin III (Scg3); test: competition ELISA (excess mAb against Clone 78 scFv) and Octet RED96
Procedure: as §1

T1 sequence (Q8WXD2 20-468 limits assumed): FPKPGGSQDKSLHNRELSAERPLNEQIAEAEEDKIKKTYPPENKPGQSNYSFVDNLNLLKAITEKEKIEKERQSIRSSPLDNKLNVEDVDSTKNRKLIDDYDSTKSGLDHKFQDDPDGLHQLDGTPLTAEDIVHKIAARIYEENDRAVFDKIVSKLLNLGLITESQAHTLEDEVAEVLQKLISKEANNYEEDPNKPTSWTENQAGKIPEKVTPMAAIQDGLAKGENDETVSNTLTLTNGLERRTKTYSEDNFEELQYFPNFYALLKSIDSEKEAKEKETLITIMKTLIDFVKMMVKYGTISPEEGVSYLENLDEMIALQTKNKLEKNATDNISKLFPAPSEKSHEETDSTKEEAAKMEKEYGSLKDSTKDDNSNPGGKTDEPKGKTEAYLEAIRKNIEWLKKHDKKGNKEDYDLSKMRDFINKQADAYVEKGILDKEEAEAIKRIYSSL

Binder | binding result [1] | binding result [3] | further results
anti-Scg3 mAb Clone 49 (antibody, V domains shown, also called Clone 49 mAb; CLONE 49 Monoclonal Antibody) VH: EVKLEESGAELVKPGASVKLSCTASGFNIKDTYMHWVKQRPEQGLEWIGRIDPANGDTKYDPKFQGKATITADTSSNTAYLQLSSLTSEDTAVYYCARNGPGTPWFAYWGQGTLVTVSA VL: DIQMTQSSSYLSVSLGGRVTITCKASDHINNWLTWYQQKPGNAPRLLISGATSLETGVPSRFSGSGSGKDYTLSITSLQTEDVATYYCQQYWSTPFTFGSGTKLEIKR | binds |  | 
aflibercept (Fc fusion, UniProt P17948 129-230, looked up, also called EYLEA; not shown: human IgG Fc) SDTGRPFVEMYSEIPEIIHMTEGRELVIPCRVTSPNITVTLKKFPLDTLIPDGKRIIWDSRKGFIISNATYKEIGLLTCEATVNGHLYKTNYLTHRQTNTIIDVVLSPSHGIELSVGEKLVLNCTARTELNVGIDFNWEYPSSKHQHKKLVNRDLKTQSGSEMKKFLSTLTIDGVTRSDQGLYTCAASSGLMTKKNSTFVRVHEK |  |  | binding result [2]: no binding
anti-Scg3 mAb Clone 153 (antibody, V domains shown, Monoclonal antibody) VH: GRKLQESGPELLKPGASVKISCKTSGYIFSTSWMNWVKQRPGQGLEWIGRIYPGDGHTNYNGKFKDKATLTADKSSSTAYMQLSSLTSVDSAVYFCARSADGYFFVYWGQGTLVTVSA VL: DIVLTQTPLSLPVSLGDQASISCRSSQSIVHSNGNTYLEWYLQKPGQSPKLLIFKVSKRFSGVPDRFSGSGSGTDFTLKISRVEAEDLGVYHCFQGSHVPPTFGGGTKLEIKR |  | binds | 
anti-Scg3 mAb Clone 78 (antibody, V domains shown, also called Clone 78 mAb; CLONE 78 Monoclonal Antibody) VH: EVQLQQSGPELLKPGASVKISCKTSGYIFSASWMNWVKQRPGQGLEWIGRIYPGDGHTNYNGKIKDKATLTADKSSSTAYMQLSSLTSVDSAVYFCARSADGYFFVDWGQGTLVTVSA VL: DIVMTQTPVSLPVSLGDQASISCRSSQSIVHSNGNTYLEWYLQKPGQSPKLLIFKVSKRFYGVPDRFSGSGSGTDFTLKISRVEAEDLGVYHCFQGSHVPPTFGGGTKLEIKR | binds |  | 
anti-Scg3 mAb Clone 162 (antibody, V domains shown, Monoclonal antibody) VH: PGKAEESGPEMLKPGASVKISCKTSGYIFSTSWMNWVKQRPGQGLEWIGRIYPGDGHTNYNGKFKDKATLTADKSSSTAYMQLSSLTSADSAVYFCARSADGYFFVYWGQGTLVTVSA VL: DIVLTQTPLSLPVSLGDQASISCRSSQNIIHSNGNTYLEWYLQKPGQSPKLLIFKVSKRFSGVPDRFSGSGSGTDFTLKISRVEAEDLGVYHCFQGSHVPPTFGGGTKLEIKR |  | binds | 
anti-Scg3 mAb Clone 190 (antibody, V domains shown, Monoclonal antibody; also called CLONE 190 Monoclonal Antibody) VH: EVKLEESGPELLKPGASVKISCKTSGYIFSSSWMNWVKQRPGQGLEWIGRIYPGDGHTNYNGKFKDKATLTADKSSSTAYMQLSSLTSVDSAVYFCARSADGYFFVYWGQGTPVTVSA VL: DIVMTQSPLSLPVSLGDQASISCRSSQSIVHSNGNTYLEWYLQKPGQSPKLLIFKVSKRFSGVPDRFSGSGSGTDFTLKISRVGAEDLGIYYCFQGSHVPPTFGGGTKLEIKR |  | binds | 
